Source: the Human Domainome abundance scans (Beltran et al. 2025)

B1: POU domain, class 3, transcription factor 3, residues 408 to 463; numbered along this chain, P20264 (parent)
chain: KKRTSIEVSVKGALESHFLKCPKPSAQEITNLADSLQLEKEVVRVWFCNRRQKEKR

Variants of: B1
Experiment: abundance fitness (aPCA) (normalised: wild type 0, dead -1); higher = more abundant; growth selection in yeast, the domain comes from the species named
Settings: Homo sapiens

Abundance fitness, by site and new letter:
V10: R -0.108, M -0.192, N -0.148
W46: S -0.422, R -0.248
I29: T -0.849, G -0.899, S -0.781, H -0.997, D -0.871, E -0.301, M -0.028, R -0.859, W -0.903, L -0.038, N -0.982, P -0.871
V45: C -0.177, N -0.206, Q 0.052, L -0.042, G -0.058, F -0.211
S9: I -0.368, C -0.247, N 0.166, Q 0.067, M -0.305, L -0.206, G 0.027, K 0.01, R -0.018, Y -0.015
H17: C -0.201, R -0.444, T -0.234, E -0.176, M -0.147, W -0.048, V -0.069
K53: L 0.032, R -0.044, I -0.121, D 0.196
S25: C -0.185, L -0.559, K -0.565, W -0.885, Q -0.537, Y -0.66
R51: M 0.031, G -0.156, N -0.175, K -0.534, A -0.105
Q37: P -0.671, A 0.013, D 0, W -0.374, N -0.037, R -0.072, H -0.034, T -0.257
P22: Y -0.383, L -0.732, I -0.572, R -0.398, G -0.19, V -0.641, K -0.432
E54: F -0.598, P -0.543, I -0.748, V -0.252, D 0.058, T -0.281, C -0.366, N -0.474, M -0.148, H -0.432, L -0.365
A33: H -0.513, Q -0.931, G -0.623, M -0.823, R -0.989, T -0.939, I -0.864, P -0.909, L -0.889
E28: C -0.368, Q -0.145, T -0.251, A -0.118, F -0.573, R -0.456, H -0.554, Y -0.048, G -0.237
F18: Y 0.026, Q -0.703, C -0.935, K -0.925, H -0.932
L32: G -0.88, P -0.935, Q -0.923, H -0.652, D -1.03, E -0.782
V42: P -0.556, Y -0.02, K -0.333, C -0.172, D -0.014, F -0.056, W -0.108, E 0.032, N -0.586, M 0.084, I -0.107
R50: C -0.75, A -0.416, M -0.497, Y -0.889, V -0.914, W -0.883, E -0.538
A13: D -0.355, T -0.058, E -0.081, V 0.111, Y -0.17, I -0.046, M -0.096, F -0.191
L19: W -0.339, D -0.191, C -0.138, A -0.029, Y -0.288, E -0.086, V -0.075, P -1.09
K2: S -0.077, D -0.098, W -0.321, H -0.38, A -0.13, R -0.086, Q -0.255
C48: G -0.109, W -0.113, A -0.12, Y 0.068, E 0.069
K20: N -0.109, W -0.421, A -0.218, L -0.195, S -0.233, Q 0.054
L38: Y -0.982, T -0.18, H -0.735, F -0.91, C -0.387
